The values below come from PMC9797058.

Broadly, the Kd is the constant that tells how readily two partners part at equilibrium.

For test [1], the target named is LRP1 (Homo sapiens) (UniProt Q07954). As to conditions: cited from earlier work.
Test [2] addresses N-terminally His-tagged Pasteurella multocida toxin (PMT) (Pasteurella multocida) (UniProt P17452). In words: ELISA; solid-phase binding assay; His-PMT coated at 10 ug/mL (500 ng/well) on 96-well Maxisorb plates at 4 C overnight; LRP1 cluster 2, 3 or 4 at 0.02-500 nM, RT, 2 h; TBS with 2 mM CaCl2; bound ligand detected with goat anti-human IgG-HRP.
UniProt P17452, sequence (P17452 whole entry): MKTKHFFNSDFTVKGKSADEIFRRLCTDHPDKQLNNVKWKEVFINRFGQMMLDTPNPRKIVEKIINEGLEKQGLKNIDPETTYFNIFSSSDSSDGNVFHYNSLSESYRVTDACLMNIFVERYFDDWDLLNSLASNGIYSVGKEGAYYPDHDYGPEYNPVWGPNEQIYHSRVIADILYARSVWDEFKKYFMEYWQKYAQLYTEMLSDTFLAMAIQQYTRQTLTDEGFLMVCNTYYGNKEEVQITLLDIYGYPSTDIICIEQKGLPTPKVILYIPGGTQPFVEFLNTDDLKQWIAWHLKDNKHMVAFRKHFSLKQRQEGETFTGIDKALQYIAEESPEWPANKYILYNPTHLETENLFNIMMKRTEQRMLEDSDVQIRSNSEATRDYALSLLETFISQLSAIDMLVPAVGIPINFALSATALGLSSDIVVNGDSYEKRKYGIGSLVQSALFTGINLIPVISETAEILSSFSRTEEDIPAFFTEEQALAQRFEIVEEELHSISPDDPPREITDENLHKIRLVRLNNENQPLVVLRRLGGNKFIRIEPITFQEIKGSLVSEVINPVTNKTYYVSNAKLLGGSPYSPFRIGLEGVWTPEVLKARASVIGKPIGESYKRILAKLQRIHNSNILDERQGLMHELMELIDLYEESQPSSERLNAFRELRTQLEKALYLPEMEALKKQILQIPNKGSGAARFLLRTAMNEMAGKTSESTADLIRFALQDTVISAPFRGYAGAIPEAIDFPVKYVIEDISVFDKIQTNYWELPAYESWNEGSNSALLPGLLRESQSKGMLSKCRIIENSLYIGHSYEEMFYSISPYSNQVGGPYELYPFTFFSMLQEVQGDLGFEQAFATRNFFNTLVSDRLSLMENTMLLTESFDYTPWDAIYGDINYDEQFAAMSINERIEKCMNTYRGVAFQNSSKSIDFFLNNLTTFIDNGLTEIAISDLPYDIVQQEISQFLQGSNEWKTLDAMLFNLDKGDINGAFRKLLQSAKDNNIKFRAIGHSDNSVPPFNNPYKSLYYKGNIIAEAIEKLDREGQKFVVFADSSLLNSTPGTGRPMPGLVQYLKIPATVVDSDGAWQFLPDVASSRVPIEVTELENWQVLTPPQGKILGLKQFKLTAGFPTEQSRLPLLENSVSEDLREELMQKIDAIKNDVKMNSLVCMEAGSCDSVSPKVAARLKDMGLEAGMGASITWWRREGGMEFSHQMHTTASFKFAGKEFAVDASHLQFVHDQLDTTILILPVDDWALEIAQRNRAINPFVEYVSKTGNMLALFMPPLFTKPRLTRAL

For the substance “Pseudomonas exotoxin A (from UniProt P11439)”, the Kd in test [1] is 5.2 nM.

For “LRP1 cluster 4 (commercially available extracellular domain) (from UniProt Q07954 20-4544) (domain or fragment)”, the Kd in test [2] was determined as 2.28 nM.

“LRP1 cluster 2 (commercially available extracellular domain) (from UniProt Q07954 20-4544) (domain or fragment)” returned a Kd in test [2] of 41.6 nM.
